In series [1] the target is fluorescently labeled phosphate-binding protein (PBP) from E. coli (Life Technologies, PV4406) (Escherichia coli, UniProt P0AG82, A222C). The settings on record: inorganic phosphate ([Pi]); two-state binding isotherm; TrisHCl pH 7.6.
Method: Briefly, 100 μL of each sample was mixed with 100 μL of 1 μM PBP in Phosphate Sensor Detection Buffer (20 mM TrisHCl pH 7.6, 0.05% Triton X-100), and fluorescence of the mixture was immediately read out at an excitation/emission of 430/450 nm on a Biotek SYNERGY™ H4 plate reader spectrophotometer. When measuring phosphate content in the AP Reaction Buffer, the buffer was diluted 1:20 in water prior to incubation with the sensor in order to minimize interference from the concentrated MOPS and salt solutions on the PBP binding thermodynamics. PBP stocks were stored as 10 μM aliquots in Phosphate Sensor Storage Buffer (10 mM TrisHCl pH 7.6, 50 mM NaCl) at −80° C. and individually thawed prior to use. […] Error bars reflect the standard deviation over three measurements.
The test system of series [2] is CC1(C)C2=C(Cl)C(=O)C(Cl)=CC2=Nc2ccc(OP(=O)(O)O)cc21. The series can be described thus: Michaelis-Menten kinetics of purified AP with DDAOP. Type of series: biochemical, E. coli. To be noted: other: substrate DDAOP, purified protein, pH 8.0. The source says:
(§1) Preparation of alkaline phosphatase protein constructs.
(§2) Analysis of alkaline phosphate activity.
(§3) Alkaline phosphatase was used as a model system.

For series [3] the test system is unchanged. The series can be described thus: Michaelis-Menten kinetics of yeast-displayed AP with DDAOP. The series is classed as biochemical, E. coli. The settings on record: other: substrate DDAOP, yeast display, pH 8.0.
From the text: as §1, §2
For kinetic measurements on the μSCALE platform, a series of images were acquired at set intervals with 600/60 nm excitation/655 nm long pass emission filters to generate single-cell reaction time courses for each cavity in the array. […] Error bars reflect the standard deviation across all cavities in each spot and were used to fit a calibration line using weighted least squares. In both cases, the linear regime of each kinetic time series was used to estimate reaction rates.
as §3

Chain of fluorescently labeled phosphate-binding protein (PBP) from E. coli (Life Technologies, PV4406) (P0AG82 26-346 A222C): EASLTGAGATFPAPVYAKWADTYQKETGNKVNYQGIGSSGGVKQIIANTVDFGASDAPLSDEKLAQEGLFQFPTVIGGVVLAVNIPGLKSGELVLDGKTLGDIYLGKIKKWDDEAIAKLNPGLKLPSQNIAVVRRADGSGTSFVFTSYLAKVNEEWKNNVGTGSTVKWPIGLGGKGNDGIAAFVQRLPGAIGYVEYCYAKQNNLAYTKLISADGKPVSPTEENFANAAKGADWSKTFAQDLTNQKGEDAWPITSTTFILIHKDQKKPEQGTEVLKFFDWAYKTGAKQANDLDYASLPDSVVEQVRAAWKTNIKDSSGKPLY

One may read the Kd as the concentration at which binding is half-saturated. Read a high Kd as a looser complex. `O=P(O)(O)O` [inorganic phosphate]: the dissociation constant Kd in series [1] is 940 nM.

As a reminder, the Km is the concentration of substrate that gives half-maximal velocity. What is called kcat is the number of substrate molecules converted per active site and unit of time at saturation. For the compound “E. coli alkaline phosphatase (AP) variant R166S, purified protein (Escherichia coli K-12; R188S)”, in series [2], the Km stood at 51 ± 4 µM, the turnover number (kcat) stood at 0.7 ± 0.2 s⁻¹ and the kcat/Km result was “(1.4 +/− 0.4) × 10^4 M^-1 s^-1”.

For the compound “E. coli alkaline phosphatase (AP) variant R166S, yeast-displayed (Escherichia coli K-12; R188S)”, the Km in series [3] came to 55 ± 7 µM.

With “E. coli alkaline phosphatase (AP), wild type (WT), GENBANK Accession Number M13345, purified protein (Escherichia coli K-12)”, in series [2] (50 pM), the Michaelis constant (Km) came to 4.1 ± 0.1 µM, the kcat was 15.7 ± 0.2 s⁻¹ and the kcat/Km result is “(3.8 +/− 0.1) × 10^6 M^-1 s^-1”.

With “E. coli alkaline phosphatase (AP), wild type (WT), GENBANK Accession Number M13345, yeast-displayed (Escherichia coli K-12)”, the Km in series [3] came out at 4.3 ± 0.4 µM.
